# Legend:
# [1] = molecular target: Human IgG1 Fc (residues 216–447) (human); experiment: SPR; Biacore T200; IgG1 Fc amine-coupled to a CM5 chip (1 μg/ml); CD16a 0.01-20.48 μM flowed at 10 μl/min; 20 mM MOPS, 100 mM sodium chloride, 1 μM bovine serum albumin, 0.05% P20, pH 7.4; dissociation constants from equilibrium responses; at least five measurements
# [2] = molecular target: Human IgG1 Fc (residues 216–447) (human); experiment: SPR; Biacore T200; IgG1 Fc amine-coupled to a CM5 chip (0.33 μg/ml); CD16a 0.04-5.12 μM flowed at 60 μl/min, contact 30 s, dissociation 250 s; 20 mM MOPS, 100 mM sodium chloride, 0.05% P20, pH 7.4, no bovine serum albumin; two-state kinetic model
Substance,Kd [1],Kd [2],"ka1 (two-state model, major event) [2]","ka2 (two-state model, minor event) [2]","kd1 (two-state model, major event) [2]","kd2 (two-state model, minor event) [2]"
"CD16a F158 S164A, lacking the N162 glycan (receptor)",1470 nM,,,,,
Fc γ receptor IIIa/CD16a F158 allotype with oligomannose (Man5GlcNAc2) N-glycans (from UniProt P08637 17-254),1070 nM,,,,,
Fc γ receptor IIIa/CD16a V158 allotype with complex-type N-glycans,270 nM,76 nM,170000 M⁻¹ s⁻¹,0.0061 s⁻¹,0.025 s⁻¹,0.0066 s⁻¹

# These reach a lower Kd [1]. Values come first.
Kd [1],Kd [2],"ka1 (two-state model, major event) [2]","ka2 (two-state model, minor event) [2]","kd1 (two-state model, major event) [2]","kd2 (two-state model, minor event) [2]",Substance
230 nM,109 nM,1.4e+06 M⁻¹ s⁻¹,0.0014 s⁻¹,0.18 s⁻¹,0.0078 s⁻¹,"CD16a V158 S164A with complex-type N-glycans, lacking the N162 glycan (receptor)"
126 nM,52 nM,1.1e+06 M⁻¹ s⁻¹,0.0018 s⁻¹,0.079 s⁻¹,0.005 s⁻¹,Fc γ receptor IIIa/CD16a F158 allotype with truncated (1)GlcNAc N-glycans (from UniProt P08637 17-254)
86 nM,55 nM,710000 M⁻¹ s⁻¹,0.0049 s⁻¹,0.071 s⁻¹,0.006 s⁻¹,Fc γ receptor IIIa/CD16a V158 allotype with oligomannose (Man5GlcNAc2) N-glycans
22 nM,9.2 nM,2.5e+06 M⁻¹ s⁻¹,0.0032 s⁻¹,0.04 s⁻¹,0.0047 s⁻¹,Fc γ receptor IIIa/CD16a V158 allotype with truncated (1)GlcNAc N-glycans

# From paper PMC9436803
